Test results as given in IntAct's records for PubMed 23892456.

B1: Homeobox protein NANOG (Mus musculus), Q80Z64 (parent)
chain: MSVGLPGPHSLPSSEEASNSGNASSMPAVFHPENYSCLQGSATEMLCTEAASPRPSSEDLPLQGSPDSSTSPKQKLSSPEADKGPEEEENKVLARKQKMRTVFSQAQLCALKDRFQKQKYLSLQQMQELSSILNLSYKQVKTWFQNQRMKCKRWQKNQWLKTSNGLIQKGSAPVEYPSIHCSYPQGYLVNASGSLSMWGSQTWTNPTWSSQTWTNPTWNNQTWTNPTWSSQAWTAQSWNGQPWNAAPLHNFGEDFLQPYVQLQQNFSASDLEVNLEATRESHAHFSTPQALELFLNYSVTPPGEI

Variants of: B1
Details: with sox2_mouse Sox2, P48432
Chain of sox2_mouse Sox2, P48432 (P48432 whole entry): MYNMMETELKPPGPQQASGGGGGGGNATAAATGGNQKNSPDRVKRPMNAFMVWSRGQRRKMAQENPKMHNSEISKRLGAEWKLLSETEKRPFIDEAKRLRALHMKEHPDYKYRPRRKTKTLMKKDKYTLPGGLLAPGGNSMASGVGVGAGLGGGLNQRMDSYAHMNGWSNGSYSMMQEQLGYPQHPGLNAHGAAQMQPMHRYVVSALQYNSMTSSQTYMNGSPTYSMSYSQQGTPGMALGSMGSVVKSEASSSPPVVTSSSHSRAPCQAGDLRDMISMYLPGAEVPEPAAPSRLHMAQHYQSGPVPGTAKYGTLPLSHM

effect of a mutation on the interaction	Variant
disrupting interaction	W198A;W203A;W208A;W213A;W218A;W223A;W228A;W233A;W238A;W243A
